Non-standard residues stand in square brackets, D forms with d. No end group written: not given here. Cit = NC(=O)NCCC[C@H](N)C(=O)O
Legend:
[1] = target: T1, human recombinant histone H2A (human); experiment: ELISA, 0.00064 ug/well
T1 construct: Non-deiminated
Method: (§1) CFC-1 and CFC-0 were coated at the same concentration and served as positive and negative controls, respectively, for specific anti-citrulline reactivity and as coating controls. Non-coated wells were used to test for aspecific binding of the antibodies. […] Detection of bound anti-citrulline antibodies was performed by incubating the wells with rabbit-anti-human-HRP (1:2000) for one hour at RT followed by incubation with TMB substrate. The resulting OD (y-axis) is a measure for antibody binding. H1=recombinant histone 1; H1/p2=huPAD2 recombinant histone 1; H1/p4=huPAD4 recombinant histone 1 and so forth (x-axis).

[2] = target: T2, huPAD2 deiminated human recombinant histone H2A (human); experiment: ELISA, 0.00064 ug/well
T2 construct: also called H2A/p2
Method: as §1

[3] = target: T3, huPAD4 deiminated human recombinant histone H2A (human); experiment: ELISA, 0.00064 ug/well
T3 construct: also called H2A/p4; huPAD4 deiminated histone 2A
Method: as §1

[4] = target: T4, human recombinant histone H2B (human); experiment: ELISA, 0.00064 ug/well
T4 construct: Non-deiminated
Method: as §1

[5] = target: T5, huPAD2 deiminated human recombinant histone H2B (human); experiment: ELISA, 0.00064 ug/well
T5 construct: also called H2B/p2
Method: as §1

[6] = target: T6, huPAD4 deiminated human recombinant histone H2B (human); experiment: ELISA, 0.00064 ug/well
T6 construct: also called H2B/p4
Method: as §1

[7] = target: human recombinant histone H4 (human, UniProt P62805 2-103); experiment: ELISA, 0.00064 ug/well
Method: as §1

[8] = target: T7, CFC-1; experiment: ELISA, 0.00064 ug/well
T7 construct: Positive control for anti-citrulline reactivity; also called cfc1 XG
Method: as §1

[9] = target: T7, CFC-1; experiment: peptide ELISA, 0.4 ug/well
Method: as §1, with “Biotin and citrulline-containing peptides derived from histone 2A were immobilized on NEUTRAVIDIN®-coated 96-well ELISA plates (0.3 μg/well). CFC-1” for “CFC-1”, “controls respectively” for “controls, respectively,”, “binding.” for “binding. H1=recombinant histone 1; H1/p2=huPAD2 recombinant histone 1; H1/p4=huPAD4 recombinant histone 1 and so forth (x-axis).”
(§2) Ninety-six-well ELISA plates were coated with NEUTRAVIDIN® (0.1 μg/well) by overnight incubation at 4° C. Wells were washed five times with PBS-TWEEN®-20 (PBS-T) and blocked by a one-hour incubation with PBS-T+1% Bovine serum albumin (BSA) at room temperature (RT). After five more washes with PBS-T, wells were incubated for one hour at RT with histone-derived citrulline and biotin-containing peptides (0.3 μg/well). […] Wells were washed five times with PBS-T and incubated with rabbit-anti-human-HRP (1:2000) for one hour at RT followed by five washes with PBS-T and three wash steps with PBS. Wells were incubated for five minutes with TMB substrate before stopping the reaction with 2 M H₂SO₄. Optical density was measured by 450 nm and is a measure for the affinity of the antibodies used.

[10] = target: T8, Histone 2A citrulline-containing peptide 1 (human, also: biotin label); experiment: peptide ELISA, 0.4 ug/well
T8 construct: also called AAASGXGKQGGK
T8 peptide: AAASG[Cit]GKQGGK
Method: as §1, with “Biotin and citrulline-containing peptides derived from histone 2A were immobilized on NEUTRAVIDIN®-coated 96-well ELISA plates (0.3 μg/well). CFC-1” for “CFC-1”, “controls respectively” for “controls, respectively,”, “binding.” for “binding. H1=recombinant histone 1; H1/p2=huPAD2 recombinant histone 1; H1/p4=huPAD4 recombinant histone 1 and so forth (x-axis).”
as §2

[11] = target: T9, Histone 2A citrulline-containing peptide 3 (human, also: biotin label); experiment: peptide ELISA, 0.4 ug/well
T9 peptide: KSRSS[Cit]AGLQFP
Method: as §1, with “Biotin and citrulline-containing peptides derived from histone 2A were immobilized on NEUTRAVIDIN®-coated 96-well ELISA plates (0.3 μg/well). CFC-1” for “CFC-1”, “controls respectively” for “controls, respectively,”, “binding.” for “binding. H1=recombinant histone 1; H1/p2=huPAD2 recombinant histone 1; H1/p4=huPAD4 recombinant histone 1 and so forth (x-axis).”
as §2

[12] = target: T10, Histone 2A citrulline-containing peptide 4 (human, also: biotin label); experiment: peptide ELISA, 0.4 ug/well
T10 peptide: QFPVG[Cit]VHRLLR
Method: as §1, with “Biotin and citrulline-containing peptides derived from histone 2A were immobilized on NEUTRAVIDIN®-coated 96-well ELISA plates (0.3 μg/well). CFC-1” for “CFC-1”, “controls respectively” for “controls, respectively,”, “binding.” for “binding. H1=recombinant histone 1; H1/p2=huPAD2 recombinant histone 1; H1/p4=huPAD4 recombinant histone 1 and so forth (x-axis).”
as §2

[13] = target: T11, Histone 2A citrulline-containing peptide 7 (human, also: biotin label); experiment: peptide ELISA, 0.4 ug/well
T11 peptide: GNYSE[Cit]VGAGAP
Method: as §1, with “Biotin and citrulline-containing peptides derived from histone 2A were immobilized on NEUTRAVIDIN®-coated 96-well ELISA plates (0.3 μg/well). CFC-1” for “CFC-1”, “controls respectively” for “controls, respectively,”, “binding.” for “binding. H1=recombinant histone 1; H1/p2=huPAD2 recombinant histone 1; H1/p4=huPAD4 recombinant histone 1 and so forth (x-axis).”
as §2

[14] = target: T12, Histone 2A citrulline-containing peptide 8 (human, also: biotin label); experiment: peptide ELISA, 0.4 ug/well
T12 peptide: AGNAA[Cit]DNKKTR
Method: as §1, with “Biotin and citrulline-containing peptides derived from histone 2A were immobilized on NEUTRAVIDIN®-coated 96-well ELISA plates (0.3 μg/well). CFC-1” for “CFC-1”, “controls respectively” for “controls, respectively,”, “binding.” for “binding. H1=recombinant histone 1; H1/p2=huPAD2 recombinant histone 1; H1/p4=huPAD4 recombinant histone 1 and so forth (x-axis).”
as §2

[15] = target: T13, Histone 2A citrulline-containing peptide 10 (human, also: biotin label); experiment: peptide ELISA, 0.4 ug/well
T13 peptide: TRIIP[Cit]HLQLAI
Method: as §1, with “Biotin and citrulline-containing peptides derived from histone 2A were immobilized on NEUTRAVIDIN®-coated 96-well ELISA plates (0.3 μg/well). CFC-1” for “CFC-1”, “controls respectively” for “controls, respectively,”, “binding.” for “binding. H1=recombinant histone 1; H1/p2=huPAD2 recombinant histone 1; H1/p4=huPAD4 recombinant histone 1 and so forth (x-axis).”
as §2

[16] = target: T14, Histone 2A citrulline-containing peptide 11 (human, also: biotin label); experiment: peptide ELISA, 0.4 ug/well
T14 peptide: LQLAI[Cit]NDEELN
Method: as §1, with “Biotin and citrulline-containing peptides derived from histone 2A were immobilized on NEUTRAVIDIN®-coated 96-well ELISA plates (0.3 μg/well). CFC-1” for “CFC-1”, “controls respectively” for “controls, respectively,”, “binding.” for “binding. H1=recombinant histone 1; H1/p2=huPAD2 recombinant histone 1; H1/p4=huPAD4 recombinant histone 1 and so forth (x-axis).”
as §2

[17] = target: T15, Histone 2A citrulline-containing peptide 12 (human, also: biotin label); experiment: peptide ELISA, 0.4 ug/well
T15 peptide: NKLLG[Cit]VTIAQG
Method: as §1, with “Biotin and citrulline-containing peptides derived from histone 2A were immobilized on NEUTRAVIDIN®-coated 96-well ELISA plates (0.3 μg/well). CFC-1” for “CFC-1”, “controls respectively” for “controls, respectively,”, “binding.” for “binding. H1=recombinant histone 1; H1/p2=huPAD2 recombinant histone 1; H1/p4=huPAD4 recombinant histone 1 and so forth (x-axis).”
as §2

[18] = target: T16, msFibα XH (mouse, X at position 15 is citrulline; biotin label); experiment: peptide ELISA, 0.4 ug/well
T16 peptide: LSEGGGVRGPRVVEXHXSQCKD
Method: (§3) Biotin and citrulline-containing peptides derived from fibrinogen and vimentin were immobilized on NEUTRAVIDIN®-coated 96-well ELISA plates (0.3 μg/well). CFC-1 and CFC-0 were coated at the same concentration and served as positive and negative controls respectively for specific anti-citrulline reactivity and as coating controls. Non-coated wells were used to test for aspecific binding of the antibodies. […] Detection of bound anti-citrulline antibodies was performed by incubating the wells with rabbit-anti-human-HRP (1:2000) for one hour at RT followed by incubation with TMB substrate. The resulting OD (y-axis) is a measure for antibody binding.
(§4) Biotin-labeled and citrulline-containing fibrinogen and vimentin peptides (Table 5) were also tested for reactivity with the therapeutic antibodies. Peptides were coated on 96-well NEUTRAVIDIN®-ELISA plates.

[19] = target: T17, msFibα XG (mouse, X at position 8 is citrulline; biotin label); experiment: peptide ELISA, 0.4 ug/well
T17 peptide: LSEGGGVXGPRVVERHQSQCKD
Method: as §3, §4

[20] = target: T18, huFibα XH (human, X at position 15 is citrulline; biotin label); experiment: peptide ELISA, 0.4 ug/well
T18 peptide: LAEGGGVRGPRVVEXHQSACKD
Method: as §3, §4

[21] = target: T19, huFibα XG (human, X at position 8 is citrulline; biotin label); experiment: peptide ELISA, 0.4 ug/well
T19 peptide: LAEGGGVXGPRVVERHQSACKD
Method: as §3, §4

[22] = target: T20, msFibβ XG (mouse, also: biotin label); experiment: peptide ELISA, 0.4 ug/well
T20 peptide: EPTDSLDA[Cit]GHRPVDRR
Method: as §3, §4

[23] = target: T21, msVim XS/XL (mouse, also: biotin label); experiment: peptide ELISA, 0.4 ug/well
T21 construct: also called mouse vimentin peptide
T21 peptide: YVT[Cit]SSAV[Cit]L[Cit]SSVP
Method: as §3, §4

B1: RhmAb2.102 (antibody, human IgG1, lambda)
heavy: not shown
light: QSVLTQPPSMSAAPGQKVTISCSGSSSNIGNNYVSWYQQVPGTAPKLLIYDDNKRPSGIPGRFSGSKSATSATLGITGLQAGDEADYYCGSWDDNLSVVLFGGGTKLTVLGQPKAAPSVTLFPPSSEELQANKATLVCLISDFYPGAVTVAWKADSSPVKAGVETTTPSKQSNNKYAASSYLSLTPEQWKSHRSYSCQVTHEGSTVEKTVAPTECS
notes: Human IgG1 lambda; also called Rhm2.102
[1]
  OD: 0.057 OD
[2]
  OD: 0.077 OD
[3]
  OD: 0.075 OD
[4]
  OD: 0.052 OD
[5]
  OD: 0.052 OD
[6]
  OD: 0.055 OD
[7]
  OD: 0.06 OD
[8]
  OD: 0.077 OD
[9]
  OD: 3.06 OD
[10]
  OD: 2.8 OD
[11]
  OD: 0.154 OD
[12]
  OD: 0.564 OD
[13]
  OD: 0.064 OD
[14]
  OD: 0.061 OD
[15]
  OD: 0.051 OD
[16]
  OD: 0.064 OD
[17]
  OD: 0.061 OD
[18]
  OD: 0.076 OD
[19]
  OD: 0.773 OD
[20]
  OD: 0.09 OD
[21]
  OD: 0.521 OD
[22]
  OD: 1.67 OD
[23]
  OD: 1.45 OD

From US20170298146A1 (MODIQUEST B V, published 2017)
